From patent US20130225506A1 (POLYPHOR, published 2013)
Numbered stars: 1 amine (or outer) side, 2 acyl side, 3 side chain; on linkers, the order of the positions; unused ones are H or OH. Square brackets hold non-standard residues; d marks the D form. Primed or numbered codes have the meaning given here. Pro((4S)NHBz) = proline with (4S)-NHBz, O=C(N[C@H]1C[C@@H](C(=O)[*:2])N([*:1])C1)c1ccccc1; (4S)Hyp(Bn) = O=C([C@@H]1C[C@H](OCc2ccccc2)CN1[*:1])[*:2]; dPro(cis-4-NH2) = N[C@H]1CN[C@@H](C(=O)O)C1; dPro(4S-NH2) = N[C@@H]1CN[C@@H](C(=O)O)C1; Oic = O=C(O)[C@@H]1C[C@@H]2CCCC[C@@H]2N1; 1Nal = N[C@@H](Cc1cccc2ccccc12)C(=O)O; 2Nal = N[C@@H](Cc1ccc2ccccc2c1)C(=O)O; Pro(3S-OH) = O=C(O)[C@H]1NCC[C@@H]1O; hArg = N=C(N)NCCCC[C@H](N)C(=O)O; 3Pal = N[C@@H](Cc1cccnc1)C(=O)O; Tic = O=C(O)[C@@H]1Cc2ccccc2CN1; d3Pal = N[C@H](Cc1cccnc1)C(=O)O; dHyp = O=C(O)[C@H]1C[C@H](O)CN1; Agb = N=C(N)NCC[C@H](N)C(=O)O; Chg = N[C@H](C(=O)O)C1CCCCC1; dDab = NCC[C@@H](N)C(=O)O; Nle = CCCC[C@H](N)C(=O)O; dPip′ = not defined here; Dab = NCC[C@H](N)C(=O)O; Abu = CC[C@H](N)C(=O)O; Mor = not defined here

B1: cyclo(-hArg-^DPhe-Trp-Arg-^DPro((4R)NH2)-Tic-) (peptide)
peptide: cyclo([hArg][dF]WR[dPro(cis-4-NH2)][Tic])
SMILES: N=C(N)NCCCC[C@@H]1NC(=O)[C@@H]2Cc3ccccc3CN2C(=O)[C@H]2C[C@@H](N)CN2C(=O)[C@H](CCCNC(=N)N)NC(=O)[C@H](Cc2c[nH]c3ccccc23)NC(=O)[C@@H](Cc2ccccc2)NC1=O
B2: cyclo(-Agb-^DPhe-Trp-Arg-^DPro((4R)NH2)-Tic-) (peptide)
peptide: cyclo([Agb][dF]WR[dPro(cis-4-NH2)][Tic])
SMILES: N=C(N)NCCC[C@@H]1NC(=O)[C@H](Cc2c[nH]c3ccccc23)NC(=O)[C@@H](Cc2ccccc2)NC(=O)[C@H](CCNC(=N)N)NC(=O)[C@@H]2Cc3ccccc3CN2C(=O)[C@H]2C[C@@H](N)CN2C1=O
B3: cyclo(-3Pal-^DPhe-Trp-Arg-^DPro((4R)NH2)-Tic-) (peptide)
peptide: cyclo([3Pal][dF]WR[dPro(cis-4-NH2)][Tic])
SMILES: N=C(N)NCCC[C@@H]1NC(=O)[C@H](Cc2c[nH]c3ccccc23)NC(=O)[C@@H](Cc2ccccc2)NC(=O)[C@H](Cc2cccnc2)NC(=O)[C@@H]2Cc3ccccc3CN2C(=O)[C@H]2C[C@@H](N)CN2C1=O
B4: cyclo(-Trp-^D3Pal-Trp-Arg-^DPro((4R)NH2)-Tic-) (peptide)
peptide: cyclo(W[d3Pal]WR[dPro(cis-4-NH2)][Tic])
SMILES: N=C(N)NCCC[C@@H]1NC(=O)[C@H](Cc2c[nH]c3ccccc23)NC(=O)[C@@H](Cc2cccnc2)NC(=O)[C@H](Cc2c[nH]c3ccccc23)NC(=O)[C@@H]2Cc3ccccc3CN2C(=O)[C@H]2C[C@@H](N)CN2C1=O
B5: cyclo(-Arg-^DPhe-Trp-hArg-^DPro((4R)NH2)-Tic-) (peptide)
peptide: cyclo(R[dF]W[hArg][dPro(cis-4-NH2)][Tic])
SMILES: N=C(N)NCCCC[C@@H]1NC(=O)[C@H](Cc2c[nH]c3ccccc23)NC(=O)[C@@H](Cc2ccccc2)NC(=O)[C@H](CCCNC(=N)N)NC(=O)[C@@H]2Cc3ccccc3CN2C(=O)[C@H]2C[C@@H](N)CN2C1=O
B6: cyclo(-Ile-^DArg-Dab-Trp-^DPro-Thr-) (peptide)
peptide: cyclo(I[dR][Dab]W[dP]T)
SMILES: CC[C@H](C)[C@@H]1NC(=O)[C@H]([C@@H](C)O)NC(=O)[C@H]2CCCN2C(=O)[C@H](Cc2c[nH]c3ccccc23)NC(=O)[C@H](CCN)NC(=O)[C@@H](CCCNC(=N)N)NC1=O
B7: cyclo(-Arg-^DPhe-Trp-Arg-^DPro((4S)NH2)-Tic-) (peptide)
peptide: cyclo(R[dF]WR[dPro(4S-NH2)][Tic])
SMILES: N=C(N)NCCC[C@@H]1NC(=O)[C@@H]2Cc3ccccc3CN2C(=O)[C@H]2C[C@H](N)CN2C(=O)[C@H](CCCNC(=N)N)NC(=O)[C@H](Cc2c[nH]c3ccccc23)NC(=O)[C@@H](Cc2ccccc2)NC1=O
B8: cyclo(-Trp-^DPhe-Trp-Arg-^DPro((4R)NH2)-Oic-) (peptide)
peptide: cyclo(W[dF]WR[dPro(cis-4-NH2)][Oic])
SMILES: N=C(N)NCCC[C@@H]1NC(=O)[C@H](Cc2c[nH]c3ccccc23)NC(=O)[C@@H](Cc2ccccc2)NC(=O)[C@H](Cc2c[nH]c3ccccc23)NC(=O)[C@@H]2C[C@@H]3CCCC[C@@H]3N2C(=O)[C@H]2C[C@@H](N)CN2C1=O
B9: cyclo(-Arg-^DPhe-Trp-Arg-^DPro((4R)NH2)-Oic-) (peptide)
peptide: cyclo(R[dF]WR[dPro(cis-4-NH2)][Oic])
SMILES: N=C(N)NCCC[C@@H]1NC(=O)[C@@H]2C[C@@H]3CCCC[C@@H]3N2C(=O)[C@H]2C[C@@H](N)CN2C(=O)[C@H](CCCNC(=N)N)NC(=O)[C@H](Cc2c[nH]c3ccccc23)NC(=O)[C@@H](Cc2ccccc2)NC1=O
B10: cyclo(-Trp-^DPhe-Trp-Arg-^DPro-Pro((4S)F)-) (peptide)
peptide: cyclo(W[dF]WR[dP][Pro((4S)F)])
B11: cyclo(-Trp-^DPhe-Trp-Arg-^DPro-Pro((4S)NH2)-) (peptide)
peptide: cyclo(W[dF]WR[dP][Pro((4S)NH2)])
B12: cyclo(-Trp-^DPhe-Trp-Arg-^DPro-Pro((4R)NH2)-) (peptide)
peptide: cyclo(W[dF]WR[dP][Pro((4R)NH2)])
B13: cyclo(-Trp-^DPhe-Trp-Arg-^DPro-Mor-) (peptide)
peptide: cyclo(W[dF]WR[dP][Mor])
modifications: reading uncertain; also: printed as cyclo(-Trp-^DPhe-Trp-Arg-^DPro-Mor-)
B14: cyclo(-Arg-^DPhe-Trp-Arg-^DPro-(4S)-Hyp(Bn)-) (peptide)
peptide: cyclo(R[dF]WR[dP][(4S)Hyp(Bn)])
SMILES: N=C(N)NCCC[C@@H]1NC(=O)[C@@H]2C[C@H](OCc3ccccc3)CN2C(=O)[C@H]2CCCN2C(=O)[C@H](CCCNC(=N)N)NC(=O)[C@H](Cc2c[nH]c3ccccc23)NC(=O)[C@@H](Cc2ccccc2)NC1=O
B15: cyclo(-Trp-^DPhe-Trp-Arg-^DPro((4S)OH)-(4S)-Hyp(Bn)-) (peptide)
peptide: cyclo(W[dF]WR[dHyp][(4S)Hyp(Bn)])
SMILES: N=C(N)NCCC[C@@H]1NC(=O)[C@H](Cc2c[nH]c3ccccc23)NC(=O)[C@@H](Cc2ccccc2)NC(=O)[C@H](Cc2c[nH]c3ccccc23)NC(=O)[C@@H]2C[C@H](OCc3ccccc3)CN2C(=O)[C@H]2C[C@H](O)CN2C1=O
B16: cyclo(-Trp-^DPhe-Trp-Arg-^DPro((4R)NH2)-(4S)-Hyp(Bn)-) (peptide)
peptide: cyclo(W[dF]WR[dPro(cis-4-NH2)][(4S)Hyp(Bn)])
SMILES: N=C(N)NCCC[C@@H]1NC(=O)[C@H](Cc2c[nH]c3ccccc23)NC(=O)[C@@H](Cc2ccccc2)NC(=O)[C@H](Cc2c[nH]c3ccccc23)NC(=O)[C@@H]2C[C@H](OCc3ccccc3)CN2C(=O)[C@H]2C[C@@H](N)CN2C1=O
B17: cyclo(-Ile-^DDab-Arg-Trp-^DPro-Thr-) (peptide)
peptide: cyclo(I[dDab]RW[dP]T)
SMILES: CC[C@H](C)[C@@H]1NC(=O)[C@H]([C@@H](C)O)NC(=O)[C@H]2CCCN2C(=O)[C@H](Cc2c[nH]c3ccccc23)NC(=O)[C@H](CCCNC(=N)N)NC(=O)[C@@H](CCN)NC1=O
B18: cyclo(-His-^DTrp-His-Trp-^DPro-Pro((4S)NHBz)-) (peptide)
peptide: cyclo(H[dW]HW[dP][Pro((4S)NHBz)])
SMILES: O=C(N[C@H]1C[C@H]2C(=O)N[C@@H](Cc3c[nH]cn3)C(=O)N[C@H](Cc3c[nH]c4ccccc34)C(=O)N[C@@H](Cc3c[nH]cn3)C(=O)N[C@@H](Cc3c[nH]c4ccccc34)C(=O)N3CCC[C@@H]3C(=O)N2C1)c1ccccc1
B19: cyclo(-1Nal-^DArg-Arg-Trp-^DPro-Pro((3S)OH)-) (peptide)
peptide: cyclo([1Nal][dR]RW[dP][Pro(3S-OH)])
SMILES: N=C(N)NCCC[C@@H]1NC(=O)[C@@H](CCCNC(=N)N)NC(=O)[C@H](Cc2cccc3ccccc23)NC(=O)[C@@H]2[C@@H](O)CCN2C(=O)[C@H]2CCCN2C(=O)[C@H](Cc2c[nH]c3ccccc23)NC1=O
B20: cyclo(-Ile-^DArg-Arg-2Nal-^DPro-Pro((3S)OH)-) (peptide)
peptide: cyclo(I[dR]R[2Nal][dP][Pro(3S-OH)])
SMILES: CC[C@H](C)[C@@H]1NC(=O)[C@@H]2[C@@H](O)CCN2C(=O)[C@H]2CCCN2C(=O)[C@H](Cc2ccc3ccccc3c2)NC(=O)[C@H](CCCNC(=N)N)NC(=O)[C@@H](CCCNC(=N)N)NC1=O
B21: cyclo(-Ile-^DArg-Arg-Trp-^DPip-Pro((3S)OH)-) (peptide)
peptide: cyclo(I[dR]RW[dPip′][Pro(3S-OH)])
B22: cyclo(-Ile-^DArg-Arg-Trp-^DPro((4S)OH)-Thr-) (peptide)
peptide: cyclo(I[dR]RW[dHyp]T)
modifications: not fully specified
B23: cyclo(-Ile-^DArg-Arg-Trp-^DPro((4R)NH2)-Thr-) (peptide)
peptide: cyclo(I[dR]RW[dPro(cis-4-NH2)]T)
SMILES: CC[C@H](C)[C@@H]1NC(=O)[C@H]([C@@H](C)O)NC(=O)[C@H]2C[C@@H](N)CN2C(=O)[C@H](Cc2c[nH]c3ccccc23)NC(=O)[C@H](CCCNC(=N)N)NC(=O)[C@@H](CCCNC(=N)N)NC1=O
B24: cyclo(-Val-^DArg-Arg-Trp-^DPro-Thr-) (peptide)
peptide: cyclo(V[dR]RW[dP]T)
SMILES: CC(C)[C@@H]1NC(=O)[C@H]([C@@H](C)O)NC(=O)[C@H]2CCCN2C(=O)[C@H](Cc2c[nH]c3ccccc23)NC(=O)[C@H](CCCNC(=N)N)NC(=O)[C@@H](CCCNC(=N)N)NC1=O
B25: cyclo(-Abu-^DArg-Arg-Trp-^DPro-Thr-) (peptide)
peptide: cyclo([Abu][dR]RW[dP]T)
SMILES: CC[C@@H]1NC(=O)[C@H]([C@@H](C)O)NC(=O)[C@H]2CCCN2C(=O)[C@H](Cc2c[nH]c3ccccc23)NC(=O)[C@H](CCCNC(=N)N)NC(=O)[C@@H](CCCNC(=N)N)NC1=O
B26: cyclo(-Chg-^DArg-Arg-Trp-^DPro-Thr-) (peptide)
peptide: cyclo([Chg][dR]RW[dP]T)
SMILES: C[C@@H](O)[C@@H]1NC(=O)[C@H]2CCCN2C(=O)[C@H](Cc2c[nH]c3ccccc23)NC(=O)[C@H](CCCNC(=N)N)NC(=O)[C@@H](CCCNC(=N)N)NC(=O)[C@H](C2CCCCC2)NC1=O
B27: cyclo(-Leu-^DArg-Arg-Trp-^DPro-Thr-) (peptide)
peptide: cyclo(L[dR]RW[dP]T)
SMILES: CC(C)C[C@@H]1NC(=O)[C@H]([C@@H](C)O)NC(=O)[C@H]2CCCN2C(=O)[C@H](Cc2c[nH]c3ccccc23)NC(=O)[C@H](CCCNC(=N)N)NC(=O)[C@@H](CCCNC(=N)N)NC1=O
B28: cyclo(-Ile-^DArg-Arg-Phe-^DPro-Thr-) (peptide)
peptide: cyclo(I[dR]RF[dP]T)
SMILES: CC[C@H](C)[C@@H]1NC(=O)[C@H]([C@@H](C)O)NC(=O)[C@H]2CCCN2C(=O)[C@H](Cc2ccccc2)NC(=O)[C@H](CCCNC(=N)N)NC(=O)[C@@H](CCCNC(=N)N)NC1=O
B29: cyclo(-Nle-^DArg-Arg-Trp-^DPro-Thr-) (peptide)
peptide: cyclo([Nle][dR]RW[dP]T)
SMILES: CCCC[C@@H]1NC(=O)[C@H]([C@@H](C)O)NC(=O)[C@H]2CCCN2C(=O)[C@H](Cc2c[nH]c3ccccc23)NC(=O)[C@H](CCCNC(=N)N)NC(=O)[C@@H](CCCNC(=N)N)NC1=O

What follows are binders tested against chemokine receptor CXCR7 (UniProt P25106 1-362, limits assumed) (assay: cell-based or functional assay).
Sequence of chemokine receptor CXCR7 (P25106 whole entry): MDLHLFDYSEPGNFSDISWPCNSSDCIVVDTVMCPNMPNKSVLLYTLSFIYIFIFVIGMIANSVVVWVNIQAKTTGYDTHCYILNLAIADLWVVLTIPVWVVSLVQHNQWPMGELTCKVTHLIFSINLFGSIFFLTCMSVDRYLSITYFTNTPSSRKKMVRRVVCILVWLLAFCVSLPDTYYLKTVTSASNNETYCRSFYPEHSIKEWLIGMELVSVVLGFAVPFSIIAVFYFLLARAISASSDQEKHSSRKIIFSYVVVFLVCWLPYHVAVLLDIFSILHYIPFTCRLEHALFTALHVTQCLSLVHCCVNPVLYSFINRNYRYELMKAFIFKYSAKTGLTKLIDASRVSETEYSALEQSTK

Binder	β-Arrestin EC50
B1	12.2 nM
B2	452 nM
B3	5.1 nM
B4	6.1 nM
B5	352 nM
B6	87 nM
B7	13.1 nM
B8	20.9 nM
B9	20.5 nM
B10	119 nM
B11	36.9 nM
B12	26.9 nM
B13	132 nM
B14	76.9 nM
B15	7.6 nM
B16	6.6 nM
B17	48.4 nM
B18	414 nM
B19	13.7 nM
B20	76.8 nM
B21	8.2 nM
B22	632 nM
B23	948 nM
B24	271 nM
B25	330 nM
B26	6.7 nM
B27	5.3 nM
B28	46.4 nM
B29	2.8 nM
